Source: patent publication US20230081195A1 (INSTITUTE OF GENETICS AND DEVELOPMENT BIOLOGY CHINESE …, published 2023)
Values belong to the binder of their own block, whether it stands above or below them.

How the values were obtained:
[1] = target: T1, OML4 full-length protein, yeast two-hybrid bait (OML4 cDNA in pGBKT7) (rice, UniProt Q64M78 1-1001); assay: yeast two-hybrid, OML4 full-length protein as bait
T1 construct: Expressed in yeast cells; also called Mei2-Like protein 4; LARGE1; not shown: fusion partner encoded by vector pGBKT7
T1 sequence: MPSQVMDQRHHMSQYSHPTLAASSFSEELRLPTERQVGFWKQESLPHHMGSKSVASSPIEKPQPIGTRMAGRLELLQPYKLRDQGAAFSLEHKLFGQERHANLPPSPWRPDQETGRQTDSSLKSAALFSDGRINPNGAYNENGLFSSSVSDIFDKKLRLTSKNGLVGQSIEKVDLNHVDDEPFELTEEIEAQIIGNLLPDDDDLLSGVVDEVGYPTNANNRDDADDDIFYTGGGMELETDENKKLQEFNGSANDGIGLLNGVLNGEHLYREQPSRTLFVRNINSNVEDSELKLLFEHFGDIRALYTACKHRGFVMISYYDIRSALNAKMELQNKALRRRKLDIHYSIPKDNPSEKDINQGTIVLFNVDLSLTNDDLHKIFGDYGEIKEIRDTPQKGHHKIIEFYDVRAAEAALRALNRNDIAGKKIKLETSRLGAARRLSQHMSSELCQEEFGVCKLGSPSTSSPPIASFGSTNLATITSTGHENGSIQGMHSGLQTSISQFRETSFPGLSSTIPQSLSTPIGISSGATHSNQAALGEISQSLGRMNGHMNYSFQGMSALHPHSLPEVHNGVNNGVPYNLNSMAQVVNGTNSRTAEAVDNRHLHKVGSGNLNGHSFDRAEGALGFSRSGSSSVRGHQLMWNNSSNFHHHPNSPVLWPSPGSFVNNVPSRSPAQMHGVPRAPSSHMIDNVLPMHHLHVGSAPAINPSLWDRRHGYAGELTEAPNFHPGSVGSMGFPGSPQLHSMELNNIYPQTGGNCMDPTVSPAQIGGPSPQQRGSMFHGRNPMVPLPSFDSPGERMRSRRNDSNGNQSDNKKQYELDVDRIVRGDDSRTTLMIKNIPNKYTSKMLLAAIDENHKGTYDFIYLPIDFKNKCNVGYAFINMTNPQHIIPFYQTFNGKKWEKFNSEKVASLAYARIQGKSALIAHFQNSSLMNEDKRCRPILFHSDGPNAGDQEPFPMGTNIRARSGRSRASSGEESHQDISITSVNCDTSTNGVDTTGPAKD
Excerpt: To further understand the molecular role of OML4 in grain growth control, we identified its interacting partners through a yeast two-hybrid (Y2H) assay. The OML4 full-length protein was used as the bait. Among several interacting proteins, six different clones corresponding to GSK2 were found in this screen. […] We further confirmed the interaction of OML4 with the full length GSK2 in yeast cells (FIG. 5A).
The cDNA sequences of GSK2 and OML4 were amplified using gene-specific primers (Table S4), and products were fused into the linearized pGADT7 and pGBKT7 vectors, respectively. Yeast two-hybrid analysis was conducted according to the manufacturer's instruction (Clontech, USA).

[2] = target: T2, OML4-cYFP (rice, UniProt Q64M78 1-1001); assay: bimolecular fluorescence complementation (BiFC), confocal microscopy
T2 construct: Transiently expressed in N. benthamiana leaves; Order of the pieces follows the printed name; also called OML4 fused with the C-terminus of the yellow fluorescent protein; not shown: C-terminus of the yellow fluorescent protein (cYFP, vector pGBW414-cYFP)
T2 sequence: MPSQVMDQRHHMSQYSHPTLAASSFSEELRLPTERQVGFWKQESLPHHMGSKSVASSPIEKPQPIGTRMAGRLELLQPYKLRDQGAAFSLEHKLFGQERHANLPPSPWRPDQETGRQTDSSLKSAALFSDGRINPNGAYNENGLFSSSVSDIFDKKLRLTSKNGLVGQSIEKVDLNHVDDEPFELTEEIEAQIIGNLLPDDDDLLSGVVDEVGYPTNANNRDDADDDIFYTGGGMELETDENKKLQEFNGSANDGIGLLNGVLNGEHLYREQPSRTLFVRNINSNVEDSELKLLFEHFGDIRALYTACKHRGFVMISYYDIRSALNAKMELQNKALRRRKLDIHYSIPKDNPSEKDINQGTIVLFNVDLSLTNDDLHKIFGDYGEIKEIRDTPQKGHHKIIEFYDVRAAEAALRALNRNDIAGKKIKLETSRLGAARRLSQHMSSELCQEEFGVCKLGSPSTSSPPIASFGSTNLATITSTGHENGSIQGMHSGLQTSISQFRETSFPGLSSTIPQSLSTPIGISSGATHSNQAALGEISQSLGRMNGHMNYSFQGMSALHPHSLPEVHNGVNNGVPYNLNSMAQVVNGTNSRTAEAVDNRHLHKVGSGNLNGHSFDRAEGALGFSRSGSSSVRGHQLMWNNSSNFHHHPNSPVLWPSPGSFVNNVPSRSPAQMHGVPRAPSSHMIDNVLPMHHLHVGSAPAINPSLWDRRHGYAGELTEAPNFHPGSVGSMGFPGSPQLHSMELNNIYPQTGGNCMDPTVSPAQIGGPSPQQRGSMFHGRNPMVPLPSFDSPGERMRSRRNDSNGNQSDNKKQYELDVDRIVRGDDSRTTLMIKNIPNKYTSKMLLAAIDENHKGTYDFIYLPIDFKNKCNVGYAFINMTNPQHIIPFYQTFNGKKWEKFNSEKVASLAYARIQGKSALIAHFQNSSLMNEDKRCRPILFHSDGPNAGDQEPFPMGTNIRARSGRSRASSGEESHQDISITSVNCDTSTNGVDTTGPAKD
Method: (§1) (A) OML4 interacts with GSK2 in yeast cells. Yeast cells were cultured on SD/-Trp-Leu or SD/-Trp-Leu-His-Ade media. (B) OML4 associates with GSK2 in N. benthamiana. OML4-nLUC and GSK2-cLUC were co-expressed in N. benthamiana leaves. Luciferase activity was observed 48 hours after infiltration. The range of luminescence intensity was scaled by the pseudocolor bar. (C) Bimolecular fluorescence complementation (BiFC) assays shown that OML4 interacts with GSK2 in N. benthamiana. OML4-cYFP was coexpressed with GSK2-nYFP in leaves of N. benthamiana. (D) OML4 binds GSK2 in vitro. GSK2-GST was incubated with OML4-MBP and pulled down by OML4-MBP and detected by immunoblot with anti-GST antibody. IB: immunoblot. (E) Interaction between OML4 and GSK2 in the Co-IP assays. Anti-MYC beads were used to immunoprecipitate GSK2-GFP proteins. Gel blots were probed with anti-MYC or anti-GFP antibody. Bars: 50 μm in C.
(§2) We next verified the interaction between OML4 and GSK2 in plant cells using the firefly luciferase (LUC) complementation imaging assay (FIG. 5B). The OML4-nLUC and GSK2-cLUC were transformed and co-expressed in N. benthamiana leaves. […] We then performed bimolecular fluorescence complementation (BiFC) assay to test the interaction between OML4 and GSK2 in plant cells (FIG. 5C). […]

[3] = target: T3, OML4-nLUC (rice; firefly, UniProt Q64M78 1-1001); assay: firefly luciferase complementation imaging, co-expression in N. benthamiana leaves
T3 construct: Co-expressed in N. benthamiana leaves; Order of the pieces follows the printed name; not shown: N-terminal fragment of firefly luciferase (nLUC)
T3 sequence: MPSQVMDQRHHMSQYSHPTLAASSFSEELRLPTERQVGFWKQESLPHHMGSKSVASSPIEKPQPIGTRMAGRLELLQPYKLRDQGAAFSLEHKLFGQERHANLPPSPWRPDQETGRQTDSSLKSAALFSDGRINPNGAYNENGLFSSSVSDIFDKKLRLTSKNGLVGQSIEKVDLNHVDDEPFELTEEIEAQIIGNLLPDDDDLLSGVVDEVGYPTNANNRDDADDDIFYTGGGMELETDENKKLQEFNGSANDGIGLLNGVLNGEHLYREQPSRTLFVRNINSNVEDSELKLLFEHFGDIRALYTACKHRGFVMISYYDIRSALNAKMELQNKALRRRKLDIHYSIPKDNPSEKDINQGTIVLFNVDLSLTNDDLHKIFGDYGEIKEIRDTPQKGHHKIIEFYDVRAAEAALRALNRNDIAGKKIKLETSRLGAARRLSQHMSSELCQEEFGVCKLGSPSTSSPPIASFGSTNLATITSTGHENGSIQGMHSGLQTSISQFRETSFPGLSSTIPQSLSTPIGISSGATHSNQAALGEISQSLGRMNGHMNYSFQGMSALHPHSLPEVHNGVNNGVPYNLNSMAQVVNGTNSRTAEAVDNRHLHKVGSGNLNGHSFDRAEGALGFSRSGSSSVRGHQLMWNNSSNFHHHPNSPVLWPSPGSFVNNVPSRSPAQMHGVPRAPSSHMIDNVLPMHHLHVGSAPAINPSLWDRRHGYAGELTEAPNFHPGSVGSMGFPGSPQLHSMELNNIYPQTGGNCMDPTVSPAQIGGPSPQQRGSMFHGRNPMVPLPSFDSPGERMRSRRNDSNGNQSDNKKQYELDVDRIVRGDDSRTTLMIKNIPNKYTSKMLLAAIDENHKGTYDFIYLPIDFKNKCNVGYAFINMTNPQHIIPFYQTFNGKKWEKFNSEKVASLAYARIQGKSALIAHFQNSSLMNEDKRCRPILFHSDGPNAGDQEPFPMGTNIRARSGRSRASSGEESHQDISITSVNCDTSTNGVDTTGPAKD
Method: as §1, §2

binding result [1]: binds
B1: full length GSK2, yeast two-hybrid prey (GSK2 cDNA in pGADT7) (enzyme)
chain: MDQPAPAPEPMLLDAQPPAAVACDKKQQEGEAPYAEGNDAVTGHIISTTIGGKNGEPKRTISYMAERVVGTGSFGIVFQAKCLETGETVAIKKVLQDRRYKNRELQLMRAMDHPNVISLKHCFFSTTSRDELFLNLVMEYVPETLYRVLKHYSNANHRMPLIYVKLYMYQLFRGLAYIHTVPGVCHRDVKPQNVLVDPLTHQVKLCDFGSAKTLVPGEPNISYICSRYYRAPELIFGATEYTTSIDIWSAGCVLAELLLGQPLFPGESAVDQLVEIIKVLGTPTREEIRCMNPNYTEFRFPQIKAHPWHKVFHKRMPPEAIDLASRLLQYSPSLRCTALDACAHPFFDELREPNARLPNGRPFPPLFNFKHELANSSQELISRLIPEHVRRQATHNFFNTGS
notes: Expressed in yeast cells; The six GSK2 clones found in the first screen are not described further; also called glycogen synthase kinase 2; SHAGGY-like kinase; not shown: fusion partner encoded by vector pGADT7

binding result [2]: binds
B2: GSK2-nYFP (enzyme)
chain: MDQPAPAPEPMLLDAQPPAAVACDKKQQEGEAPYAEGNDAVTGHIISTTIGGKNGEPKRTISYMAERVVGTGSFGIVFQAKCLETGETVAIKKVLQDRRYKNRELQLMRAMDHPNVISLKHCFFSTTSRDELFLNLVMEYVPETLYRVLKHYSNANHRMPLIYVKLYMYQLFRGLAYIHTVPGVCHRDVKPQNVLVDPLTHQVKLCDFGSAKTLVPGEPNISYICSRYYRAPELIFGATEYTTSIDIWSAGCVLAELLLGQPLFPGESAVDQLVEIIKVLGTPTREEIRCMNPNYTEFRFPQIKAHPWHKVFHKRMPPEAIDLASRLLQYSPSLRCTALDACAHPFFDELREPNARLPNGRPFPPLFNFKHELANSSQELISRLIPEHVRRQATHNFFNTGS
notes: Transiently expressed in N. benthamiana leaves; Order of the pieces follows the printed name; also called GSK2 fused with the N-terminus of the yellow fluorescent protein; not shown: N-terminus of the yellow fluorescent protein (nYFP, vector pGBW414-nYFP)

binding result [3]: no binding
B3: cLUC (other, firefly, UniProt P08659 398-550, looked up)
chain: MSGYVNNPEATNALIDKDGWLHSGDIAYWDEDEHFFIVDRLKSLIKYKGYQVAPAELESILLQHPNIFDAGVAGLPDDDAGELPAAVVVLEHGKTMTEKEIVDYVASQVTTAKKLRGGVVFVDEVPKGLTGKLDARKIREILIKAKKGGKSKL
notes: Control of the luciferase complementation imaging assay
